# System: Escherichia coli TOP10
# Experiment: shrunken log2 fold change of peptide-encoding DNA abundance (4.5 h post-induction vs induction); higher = less antimicrobial activity (less host growth inhibition)
# Conditions: time post-induction: 4.5 h; library: site-saturation at positions 5, 18, 19, 20
# 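Note: peptides expressed intracellularly from a pBAD plasmid library in pooled LB shake-flask culture, induced with 0.3% L-arabinose, DNA abundance read by NGS, three biological replicates, DESeq2 with apeglm shrinkage.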
row,Sequence,shrunken log2 fold change
1,RRIRNRPPRLPRPRPRPALTPRP,-0.158
2,RRIRNRPPRLPRPRPRPPLNPRP,0.0798
3,RRIRNRPPRLPRPRPRPAMEPRP,0.243
4,RRIRWRPPRLPRPRPRPDYKPRP,-0.0643
5,RRIRRRPPRLPRPRPRPTHYPRP,1.2
6,RRIRKRPPRLPRPRPRPICYPRP,0.125
7,RRIRWRPPRLPRPRPRPPSPPRP,0.598
8,RRIRKRPPRLPRPRPRPADHPRP,0.111
9,RRIRPRPPRLPRPRPRPYFMPRP,-0.555
10,RRIRARPPRLPRPRPRPYYGPRP,-0.363
11,RRIRKRPPRLPRPRPRPLVAPRP,0.805
12,RRIRTRPPRLPRPRPRPNQSPRP,-0.187
13,RRIRRRPPRLPRPRPRPCNNPRP,-0.368
14,RRIRYRPPRLPRPRPRPYHKPRP,-0.249
15,RRIRARPPRLPRPRPRPLTFPRP,-0.203
16,RRIRNRPPRLPRPRPRPYFYPRP,-0.345
17,RRIRYRPPRLPRPRPRPKNGPRP,0.013
18,RRIRDRPPRLPRPRPRPPADPRP,0.594
19,RRIRCRPPRLPRPRPRPMAFPRP,-0.22
20,RRIRQRPPRLPRPRPRPFDEPRP,-0.153
21,RRIRIRPPRLPRPRPRPVPWPRP,2.5
22,RRIRDRPPRLPRPRPRPIPIPRP,-0.0457
23,RRIRWRPPRLPRPRPRPSTRPRP,0.00128
24,RRIRYRPPRLPRPRPRPTRVPRP,0.303
25,RRIRPRPPRLPRPRPRPARKPRP,0.705

row,Sequence,shrunken log2 fold change
1,RRIRCRPPRLPRPRPRPFPWPRP,-0.361
2,RRIRSRPPRLPRPRPRPMPTPRP,0.358
3,RRIRYRPPRLPRPRPRPTFRPRP,-0.0396
4,RRIRKRPPRLPRPRPRPGDIPRP,-0.227
5,RRIRWRPPRLPRPRPRPAGNPRP,0.396
6,RRIRPRPPRLPRPRPRPFNRPRP,-0.436
7,RRIRQRPPRLPRPRPRPDGHPRP,-0.0936
8,RRIRTRPPRLPRPRPRPNVYPRP,-0.683
9,RRIRCRPPRLPRPRPRPSGAPRP,0.176
10,RRIRVRPPRLPRPRPRPRDEPRP,2.79
11,RRIRPRPPRLPRPRPRPDFEPRP,-0.235
12,RRIRVRPPRLPRPRPRPLGHPRP,0.0376
13,RRIRTRPPRLPRPRPRPENMPRP,-0.468
14,RRIRYRPPRLPRPRPRPPEYPRP,0.0412
15,RRIRTRPPRLPRPRPRPVLNPRP,-0.269
16,RRIRKRPPRLPRPRPRPRIYPRP,-0.0634
17,RRIRIRPPRLPRPRPRPESEPRP,-0.0338
18,RRIRCRPPRLPRPRPRPIIIPRP,-0.816
19,RRIRERPPRLPRPRPRPASCPRP,-0.211
20,RRIRQRPPRLPRPRPRPHNNPRP,-0.748
21,RRIRNRPPRLPRPRPRPTKAPRP,-0.00132
22,RRIRYRPPRLPRPRPRPHGNPRP,-0.573
23,RRIRARPPRLPRPRPRPYFTPRP,-0.71
24,RRIRNRPPRLPRPRPRPYYDPRP,-0.0248
25,RRIRARPPRLPRPRPRPDDNPRP,0.248

row,Sequence,shrunken log2 fold change
1,RRIRLRPPRLPRPRPRPTAAPRP,0.897
2,RRIRQRPPRLPRPRPRPKYAPRP,-0.285
3,RRIRERPPRLPRPRPRPSRIPRP,-0.234
4,RRIRDRPPRLPRPRPRPWRGPRP,0.196
5,RRIRNRPPRLPRPRPRPNLSPRP,-0.0459
6,RRIRGRPPRLPRPRPRPQENPRP,0.462
7,RRIRIRPPRLPRPRPRPYVIPRP,-0.017
8,RRIRSRPPRLPRPRPRPEVCPRP,0.11
9,RRIRNRPPRLPRPRPRPARQPRP,0.304
10,RRIRERPPRLPRPRPRPNYCPRP,-0.0596
11,RRIRPRPPRLPRPRPRPPSQPRP,0.334
12,RRIRSRPPRLPRPRPRPGPKPRP,1.07
13,RRIRHRPPRLPRPRPRPYSMPRP,-0.878
14,RRIRRRPPRLPRPRPRPNHNPRP,-0.329
15,RRIRCRPPRLPRPRPRPSEWPRP,-0.214
16,RRIRARPPRLPRPRPRPLWCPRP,-0.264
17,RRIRHRPPRLPRPRPRPKDAPRP,-0.112
18,RRIRARPPRLPRPRPRPTFPPRP,0.308
19,RRIRARPPRLPRPRPRPGPQPRP,0.367
20,RRIRLRPPRLPRPRPRPSRKPRP,-0.177
21,RRIRTRPPRLPRPRPRPNEYPRP,-0.22
22,RRIRRRPPRLPRPRPRPSILPRP,0.197
23,RRIRRRPPRLPRPRPRPMCCPRP,-0.0111
24,RRIRFRPPRLPRPRPRPSYMPRP,-1.21
25,RRIRYRPPRLPRPRPRPLQPPRP,-0.499

row,Sequence,shrunken log2 fold change
1,RRIRDRPPRLPRPRPRPCHFPRP,-0.105
2,RRIRMRPPRLPRPRPRPVGFPRP,0.405
3,RRIRMRPPRLPRPRPRPRHHPRP,0.415
4,RRIRRRPPRLPRPRPRPTTDPRP,0.647
5,RRIRHRPPRLPRPRPRPYIMPRP,-0.431
6,RRIRDRPPRLPRPRPRPLTAPRP,0.48
7,RRIRERPPRLPRPRPRPLVRPRP,-0.192
8,RRIRLRPPRLPRPRPRPHLKPRP,-0.564
9,RRIRIRPPRLPRPRPRPPVHPRP,-0.185
10,RRIRCRPPRLPRPRPRPSKSPRP,-0.0548
11,RRIRPRPPRLPRPRPRPPKCPRP,-0.028
12,RRIRPRPPRLPRPRPRPLSIPRP,-0.498
13,RRIRIRPPRLPRPRPRPYYQPRP,-0.296
14,RRIRWRPPRLPRPRPRPLTFPRP,-0.501
15,RRIRTRPPRLPRPRPRPSQQPRP,0.117
16,RRIRNRPPRLPRPRPRPFINPRP,-1.59
17,RRIRHRPPRLPRPRPRPVCLPRP,-0.0609
18,RRIRVRPPRLPRPRPRPCLCPRP,-0.491
19,RRIRERPPRLPRPRPRPTKVPRP,0.0356
20,RRIRCRPPRLPRPRPRPIWAPRP,-0.0162
21,RRIRHRPPRLPRPRPRPWVLPRP,-0.776
22,RRIRFRPPRLPRPRPRPKTTPRP,0.142
23,RRIRTRPPRLPRPRPRPYWEPRP,-0.0372
24,RRIRGRPPRLPRPRPRPEWVPRP,0.875
25,RRIRPRPPRLPRPRPRPSTPPRP,-0.0766

row,Sequence,shrunken log2 fold change
1,RRIRDRPPRLPRPRPRPEMHPRP,0.891
2,RRIRGRPPRLPRPRPRPAALPRP,0.912
3,RRIRLRPPRLPRPRPRPKWAPRP,-0.0391
4,RRIRLRPPRLPRPRPRPCPCPRP,-0.0536
5,RRIRIRPPRLPRPRPRPDTIPRP,-0.0883
6,RRIRCRPPRLPRPRPRPIEVPRP,-0.0598
7,RRIRRRPPRLPRPRPRPKPDPRP,0.493
8,RRIRVRPPRLPRPRPRPFRVPRP,-0.266
9,RRIRLRPPRLPRPRPRPDFPPRP,0.24
10,RRIRDRPPRLPRPRPRPHAAPRP,0.458
11,RRIRCRPPRLPRPRPRPRWWPRP,0.718
12,RRIRDRPPRLPRPRPRPRPDPRP,0.379
13,RRIRPRPPRLPRPRPRPMLRPRP,0.34
14,RRIRLRPPRLPRPRPRPGTSPRP,-0.0167
15,RRIRMRPPRLPRPRPRPLVMPRP,0.0504
16,RRIRERPPRLPRPRPRPALQPRP,0.22
17,RRIRSRPPRLPRPRPRPHIWPRP,-0.442
18,RRIRSRPPRLPRPRPRPMDDPRP,-0.0393
19,RRIRPRPPRLPRPRPRPCQNPRP,-0.0169
20,RRIRIRPPRLPRPRPRPEMDPRP,-0.277
21,RRIRPRPPRLPRPRPRPVFSPRP,-0.00413
22,RRIRQRPPRLPRPRPRPTNRPRP,0.0327
23,RRIRHRPPRLPRPRPRPNTNPRP,-0.74
24,RRIRIRPPRLPRPRPRPYHKPRP,-0.165
25,RRIRLRPPRLPRPRPRPDRMPRP,-0.0414
